Measurements reported in paper PMC3094553 (Nature methods, 2009).
Where “and” joins values, the source holds several entries; their conditions need not be identical. Equal entries are not always repeated. Where two headings read alike, the source gives them in different places.

Key:
[1] = biological target: the molecule itself; test: SAXS
[2] = biological target: the molecule itself; test: SAXS; remark: listed apart in the source

Protein	stoichiometry N [1]	stoichiometry N [2]	percent of the sample as 2-mer [1] [%]
PF0619 (conserved hypothetical protein) (natural protein) MLVPGRVYLFRIPEGKEIIEFLREFAEKENIKVGIISAIGTLRNPVIGYFMEEEKKYKEISLTGTYELLSLSGNISLKDGKPFVHAHVVLGDSEGRAFGGHLVRGEVFVAEVFVQELEGETLERKPTEHGLALW	3		
PF0014/0015 complex (complex) chain 1: MEEKKPVNLVLPEVENAIFIEGYPGVGLVGHIAANFLAKELDMDLIGYVDSLFIPPMSLILEGRPTPPLRFYGKNNIIIAIADIFLPPTLVNEIAKEIVNYLKKVNAEKVISLAGMGIGFFKDTFEVWGIGGSEEENKELESLGVKILKYGSITGMSGKLLWEASRAGLKSYVLLGETFGDRPDPRAAANVVEVLNKMLGLNVSVEPLLKEAEMIEEQLRRMHEQMEEARRKMERQYETMYL chain 2: MVVEIPLLSGIARRTLDALMRNPIRTVEIRNARNYMTLEKVKEGDLVFLTYESLEDVMRGTEGIIAMVTRMEKSHQRVPWEESDEREISICRVQLKLVGLGRVVEVQEKNGVVFVKVREMLHHEISMG		> 8	
superoxide reductase (PF1281, SOR) (enzyme) MISETIRSGDWKGEKHVPVIEYEREGELVKVKVQVGKEIPHPNTTEHHIRYIELYFLPEGENFVYQVGRVEFTAHGESVNGPNTSDVYTEPIAYFVLKTKKKGKLYALSYCNIHGLWENEVTLE	4		
PF1950 (phosphoribosyl transferase) (natural protein) MKKFPAYLASWEDIENWAKAGAWKVLESGWMPDVIVGLARGGWIAARLYCDYLGVKDLVSIKVEHWGVTATPDGRARLKYGAQYDFEGKKVLIVDDITDTGESMSLAYEYMKSRNPAEIRTATLLNIKGSKFVPDYYAKDIDWVWVVFPWNFVEDMINLTNNLFEEKDKLTTDEIISLFKELHGIEVPREKLEEALRMAEKRKIFKFENGFWTKV	2		
PF1291 (phosphoesterase) (natural protein) MVYVAVLANIAGNLPALTAALSRIEEMREEGYEIEKYYILGNIVGLFPYPKEVIEVIKDLTKKENVKIIRGKYDQIIAMSDPHATDPGYIDKLELPGHVKKALKFTWEKLGHEGREYLRDLPIYLVDKIGGNEVFGVYGSPINPFDGEVLAEQPTSYYEAIMRPVKDYEMLIVASPMYPVDAMTRYGRVVCPGSVGFPPGKEHKATFALVDVDTLKPKFIEVEYDKKIIEERIRAEGLPEEIIKILYHGGRP	4		
ferredoxin (PF1909, Fd) (natural protein) AWKVSVDQDTCIGDAICASLCPDVFEMNDEGKAQPKVEVIEDEELYNCAKEAMEACPVSAITIEEA	2		40
PF0230 (ArsR transcription regulator) (natural protein) MTKRVKVITDPEVIKVMLEDTRRKILQLLRNREMTISQLSEILGKMPQTIYHHIEKLKEAGLVEVKRTEMKGNLVEKYYGRTADVFYINLYMGDEELRYLARSRLKTKLDIFKKLGYKFDEEELLNVMDRILEKEHEVKVEISKEIENVEDSLKEFSNEDIIHAIEWLAMARLAQDEEYIELVKKLGQILKR	2		
PF0259 (conserved hypothetical protein) (natural protein) MAVIIEFSLIPLGEVSVSKYIAEAIKLLEEKGVKYQLTPMGTIIEVGSVEEGLKIVGEAHELMFKLGVKRVVTHIKIDDRRDKERKMEDKVKSVIEKVKK	8		
PF0380 (conserved hypothetical protein) (natural protein) MGVEKVPKYDIPVKKVEYVFIELDKMKPHEQLVQRELEDFIESVTGSGIFWKPMLLAKIPGTDEYLIVDGHHRWAGLQKLGAKRAPSVILDYFDEGVKVYTWYPAFKGDVNKVIERLKAEGLEVIEDEKAEEKAEKGEIAFALIGEKSFAIPGGLEEQKKVSKVLDEMDQAKEIELVYYGLKEDAKADMEKGEIDYVFIRKAPTKEEVMELVKRGEVFSPKTTRHVLPFIPDKIDVKLEDLF	2		68
PF1033 (thioredoxin-like fold) (natural protein) MIVIGEKFPEVEVKTTHGVIKLPDHFTKQGKWFMLFSHPADFTPVCTTEFYGLQIRLEKFRELGVEPIGLSVDQVFSHLKWMEWIKEKLGVEIEFPVIADDRGDLAEKLGMIPSGSTITARAVFIVDDKGIIRAIVYYPAEVGRDWDEILRLVKALKISTEKGVALPHKWPNNELIGDKVIVPPASSVEQIKEREEAKAKGEIECYDWWFCYKKLE	10		
acetyl-CoA synthetase subunit (PF1787) (natural protein) MDRVAKAREIIEKAKAENRPLVEPEAKEILKLYGIPVPEFKVARNEEEAVKFSGEIGYPVVMKIVSPQIIHKSDAGGVKINIKNDEEAREAFRTIMQNARNYKPDADLWGVIIYRMLPLGREVIVGMIRDPQFGPAVMFGLGGIFVEILKDVSFRVAPITKEDALEMIREIKAYPILAGARGEKPVNIEALADIIVKVGELALELPEIKEIDINPIFAYEDSAIAVDARMIL	3		
PF0094 (glutaredoxin-like) (natural protein) MGLISDADKKVIKEEFFSKMVNPVKLIVFVRKDHCQYCDQLKQLVQELSELTDKLSYEIVDFDTPEGKELAKRYRIDRAPATTITQDGKDFGVRYFGLPAGHEFAAFLEDIVDVSREETNLMDETKQAIRNIDQDVRILVFVTPTCPYCPLAVRMAHKFAIENTKAGKGKILGDMVEAIEYPEWADQYNVMAVPKIVIQVNGEDRVEFEGAYPEKMFLEKLLSALS	4 and 2		92
PF1911 (ferredoxin NADP reductase) (natural protein) MYKILEKKEIAMRNTWYKVYAPHVAKKVQPGQFVIVRAFPNGERIPLTPVMWDREEGWIVLIVFTRGKTTMRMAVELKEGDSLLNVAGPLGTPVPMEKFGKILAIGAYTGIVEVYPIAKAWQEIGNDVTTLHVTFEPMVILKEELEKAVTRHIVEPVPLNPNQDFLANMKNVSQRLKEKVRELLESEDWDLVFMVGPVGDQKQVFEVVKEYGVPMKVDLHPIMVDGTGMCGACRVTVGGEVKFACVDGPEFDAYQVDWDELIHRVGFYAKLEKLALEKYMEELKAKGVI	2		
PF0939 (isopropylmalate dehydratase) (natural protein) MKARGRAWKYGDNIDTDVIIPARYLNTSDPKELAQHVLEDLDPEFRYKMKPGDIIVAGENFGCGSSREHAPLAIKAAGVSAVIAKSFARIFYRNAINIGLPILEAPEAVERIETGDEIEIDFSTGEIRNLTKGEVYHANPFPEFIMEIIKAGGLVEWAKRRLAK	2		
PF1372 (conserved hypothetical protein) (natural protein) MTEIRYYKIGEDRFKISEDEVARRELRVAKVSDDVIQIQEEVHGIIALVGATSSVNIKKEELKELVKLVREEFGWDI	4		
PF0715 (NADH oxidase) (natural protein) MEFFEVLKKRRSIRRFQDKPVPRELIEKLLEAAFLSPSSYNKRPCHFIVVDDREKLEALSKSKLGASGLKTAPVAIVVTADESKSDVWIEDASIAAEHIHLASYALGLASFWVQIRNRMHNETKTAEEYVRELLNIPENYRVLCIIGVGYPAEDKPPHGNEVFEWEKVSYNEFGKRFK	2		
